Experimental data reported in patent US7439329B2, “GEF-H1b: biomarkers, complexes assays and therapeutic uses thereof” (Sugen, Inc., priority 2002, dated 2008).

Tested on: GEF-H1S
Experiment: Co-transfection of GEF-H1S and PAK4 alleles, Western blot with phospho-specific GEF-H1 antibodies
Type: cell-based, human
Method: To confirm that GEF-H1S phosphorylation by PAK4 occurs at these sites in vivo, co-transfection assays were performed and analyzed phosphorylation of GEF-H1 by use of a phospho-specific antibody directed against phospho-serine 810. This antibody is specific for GEF-H1 that is phosphorylated on Ser 810. […] Expression of the kinase-dead PAK4 is also able to inhibit endogenous PAK4 basal phosphorylation of GEF-H1S on Ser 810.
In this experiment GEF-H1S expression vector was pRSV/Rc and the PAK4 expression vector was pcDNA. Lysates were prepared from the transfected 293T cells and analyzed by Western Blot using the anti-1009 reagent. […] These phosphospecific antibodies can be used to detect PAK4 activity in tumors by virtue of its specific phosphorylation of GEF-H1.

[1] = co-expression with GEF-H1S in mammalian (293T) cells, anti-1009 Western blot, relative to basal phosphorylation

Molecule | phosphorylation of GEF-H1S on Ser 810 [1] | phosphorylation of GEF-H1S on Ser 810 (co-expression with GEF-H1S in mammalian (293T) cells, anti-1009 Western blot, relative to basal phosphorylation, listed as activated PAK4) | phosphorylation of GEF-H1S on Ser 67 (co-transfection with GEF-H1S, phospho-specific antibodies against Ser 67) | phosphorylation of GEF-H1S on Ser 810 (co-expression with GEF-H1S in mammalian (293T) cells, anti-1009 Western blot, relative to basal phosphorylation, listed as kinase-dead PAK4) | phosphorylation of GEF-H1S on Ser 810 (co-expressed with Cdc42)
S474E: activated PAK4 mutant (protein) MFGKRKKRVEISAPSNFEHRVHTGFDQHEQKFTGLPRQWQSLIEESARRPKPLVDPACITSIQPGAPKTIVRGSKGAKDGALTLLLDEFENMSVTRSNSLRRDSPPPPARARQENGMPEEPATTARGGPGKAGSRGRFAGHSEAGGGSGDRRRAGPEKRPKSSREGSGGPQESSRDKRPLSGPDVGTPQPAGLASGAKLAAGRPFNTYPRADTDHPSRGAQGEPHDVAPNGPSAGGLAIPQSSSSSSRPPTRARGAPSPGVLGPHASEPQLAPPACTPAAPAVPGPPGPRSPQREPQRVSHEQFRAALQLVVDPGDPRSYLDNFIKIGEGSTGIVCIATVRSSGKLVAVKKMDLRKQQRRELLFNEVVIMRDYQHENVVEMYNSYLVGDELWVVMEFLEGGALTDIVTHTRMNEEQIAAVCLAVLQALSVLHAQGVIHRDIKSDSILLTHDGRVKLSDFGFCAQVSKEVPRRKELVGTPYWMAPELISRLPYGPEVDIWSLGIMVIEMVDGEPPYFNEPPLKAMKMIRDNLPPRLKNLHKVSPSLKGFLDRLLVRDPAQRATAAELLKHPFLAKAGPPASIVPLMRQNRTR | marked increase | enhanced | stimulated phosphorylation |  | 
PAK4 kinase dead K350,351A: kinase inactive PAK4 mutant (protein, UniProt O96013 1-591, looked up, variant K350A K351A) Serine/threonine-protein …: MFGKRKKRVEISAPSNFEHRVHTGFDQHEQKFTGLPRQWQSLIEESARRPKPLVDPACITSIQPGAPKTIVRGSKGAKDGALTLLLDEFENMSVTRSNSLRRDSPPPPARARQENGMPEEPATTARGGPGKAGSRGRFAGHSEAGGGSGDRRRAGPEKRPKSSREGSGGPQESSRDKRPLSGPDVGTPQPAGLASGAKLAAGRPFNTYPRADTDHPSRGAQGEPHDVAPNGPSAGGLAIPQSSSSSSRPPTRARGAPSPGVLGPHASEPQLAPPACTPAAPAVPGPPGPRSPQREPQRVSHEQFRAALQLVVDPGDPRSYLDNFIKIGEGSTGIVCIATVRSSGKLVAVAAMDLRKQQRRELLFNEVVIMRDYQHENVVEMYNSYLVGDELWVVMEFLEGGALTDIVTHTRMNEEQIAAVCLAVLQALSVLHAQGVIHRDIKSDSILLTHDGRVKLSDFGFCAQVSKEVPRRKSLVGTPYWMAPELISRLPYGPEVDIWSLGIMVIEMVDGEPPYFNEPPLKAMKMIRDNLPPRLKNLHKVSPSLKGFLDRLLVRDPAQRATAAELLKHPFLAKAGPPASIVPLMRQNRTR | marked decrease |  |  | inhibit | 
wild type PAK4 (1-591): wild type p-21-activated kinase 4 expressed from pcDNA (protein) MFGKRKKRVEISAPSNFEHRVHTGFDQHEQKFTGLPRQWQSLIEESARRPKPLVDPACITSIQPGAPKTIVRGSKGAKDGALTLLLDEFENMSVTRSNSLRRDSPPPPARARQENGMPEEPATTARGGPGKAGSRGRFAGHSEAGGGSGDRRRAGPEKRPKSSREGSGGPQESSRDKRPLSGPDVGTPQPAGLASGAKLAAGRPFNTYPRADTDHPSRGAQGEPHDVAPNGPSAGGLAIPQSSSSSSRPPTRARGAPSPGVLGPHASEPQLAPPACTPAAPAVPGPPGPRSPQREPQRVSHEQFRAALQLVVDPGDPRSYLDNFIKIGEGSTGIVCIATVRSSGKLVAVKKMDLRKQQRRELLFNEVVIMRDYQHENVVEMYNSYLVGDELWVVMEFLEGGALTDIVTHTRMNEEQIAAVCLAVLQALSVLHAQGVIHRDIKSDSILLTHDGRVKLSDFGFCAQVSKEVPRRKSLVGTPYWMAPELISRLPYGPEVDIWSLGIMVIEMVDGEPPYFNEPPLKAMKMIRDNLPPRLKNLHKVSPSLKGFLDRLLVRDPAQRATAAELLKHPFLAKAGPPASIVPLMRQNRTR | marked increase |  |  |  | enhanced
